Measurements reported in publication PMC9958131 (Nature Communications, 2023).

B1: Kininogen-1 (protein, UniProt P01042 19-644, looked up)
Kininogen-1: QESQSEEIDCNDKDLFKAVDAALKKYNSQNQSNNQFVLYRITEATKTVGSDTFYSFKYEIKEGDCPVQSGKTWQDCEYKDAAKAATGECTATVGKRSSTKFSVATQTCQITPAEGPVVTAQYDCLGCVHPISTQSPDLEPILRHGIQYFNNNTQHSSLFMLNEVKRAQRQVVAGLNFRITYSIVQTNCSKENFLFLTPDCKSLWNGDTGECTDNAYIDIQLRIASFSQNCDIYPGKDFVQPPTKICVGCPRDIPTNSPELEETLTHTITKLNAENNATFYFKIDNVKKARVQVVAGKKYFIDFVARETTCSKESNEELTESCETKKLGQSLDCNAEVYVVPWEKKIYPTVNCQPLGMISLMKRPPGFSPFRSSRIGEIKEETTVSPPHTSMAPAQDEERDSGKEQGHTRRHDWGHEKQRKHNLGHGHKHERDQGHGHQRGHGLGHGHEQQHGLGHGHKFKLDDDLEHQGGHVLDHGHKHKHGHGHGKHKNKGKKNGKHNGWKTEHLASSSEDSTTPSAQTQEKTEGPTPIPSLAKPGVTVTFSDFQDSDLIATMMPPISPAPIQSDDDWIPDIQIDPNGLSFNPISDFPDTTSPKCPGRPWKSVSEINPTTQMKESYYFDLTDGLS
B2: Keratin, type II cuticular Hb6 (protein, UniProt O43790 1-486, looked up)
Keratin, type II cuticular Hb6: MTCGSYCGGRAFSCISACGPRPGRCCITAAPYRGISCYRGLTGGFGSHSVCGGFRAGSCGRSFGYRSGGVCGPSPPCITTVSVNESLLTPLNLEIDPNAQCVKQEEKEQIKSLNSRFAAFIDKVRFLEQQNKLLETKLQFYQNRECCQSNLEPLFEGYIETLRREAECVEADSGRLASELNHVQEVLEGYKKKYEEEVSLRATAENEFVALKKDVDCAYLRKSDLEANVEALIQEIDFLRRLYEEEIRVLQSHISDTSVVVKLDNSRDLNMDCIIAEIKAQYDDIVTRSRAEAESWYRSKCEEMKATVIRHGETLRRTKEEINELNRMIQRLTAEVENAKCQNSKLEAAVAQSEQQGEAALSDARCKLAELEGALQKAKQDMACLIREYQEVMNSKLGLDIEIATYRRLLEGEEQRLCEGVGSVNVCVSSSRGGVVCGDLCASTTAPVVSTRVSSVPSNSNVVVGTTNACAPSARVGVCGGSCKRC
B3: Angiotensinogen (protein, UniProt P01019 25-476, looked up)
Angiotensinogen: DRVYIHPFHLVIHNESTCEQLAKANAGKPKDPTFIPAPIQAKTSPVDEKALQDQLVLVAAKLDTEDKLRAAMVGMLANFLGFRIYGMHSELWGVVHGATVLSPTAVFGTLASLYLGALDHTADRLQAILGVPWKDKNCTSRLDAHKVLSALQAVQGLLVAQGRADSQAQLLLSTVVGVFTAPGLHLKQPFVQGLALYTPVVLPRSLDFTELDVAAEKIDRFMQAVTGWKTGCSLMGASVDSTLAFNTYVHFQGKMKGFSLLAEPQEFWVDNSTSVSVPMLSGMGTFQHWSDIQDNFSVTQVPFTESACLLLIQPHYASDLDKVEGLTFQQNSLNWMKKLSPRTIHLTMPQLVLQGSYDLQDLLAQAELPAILHTELNLQKLSNDRIRVGEVLNSIFFELEADEREPTESTQQLNKPEVLEVTLNRPFLFAVYDQSATALHFLGRVANPLSTA
B4: Galectin-3-binding protein (protein, UniProt Q08380 19-585, looked up)
Galectin-3-binding protein: VNDGDMRLADGGATNQGRVEIFYRGQWGTVCDNLWDLTDASVVCRALGFENATQALGRAAFGQGSGPIMLDEVQCTGTEASLADCKSLGWLKSNCRHERDAGVVCTNETRSTHTLDLSRELSEALGQIFDSQRGCDLSISVNVQGEDALGFCGHTVILTANLEAQALWKEPGSNVTMSVDAECVPMVRDLLRYFYSRRIDITLSSVKCFHKLASAYGARQLQGYCASLFAILLPQDPSFQMPLDLYAYAVATGDALLEKLCLQFLAWNFEALTQAEAWPSVPTDLLQLLLPRSDLAVPSELALLKAVDTWSWGERASHEEVEGLVEKIRFPMMLPEELFELQFNLSLYWSHEALFQKKTLQALEFHTVPFQLLARYKGLNLTEDTYKPRIYTSPTWSAFVTDSSWSARKSQLVYQSRRGPLVKYSSDYFQAPSDYRYYPYQSFQTPQHPSFLFQDKRVSWSLVYLPTIQSCWNYGFSCSSDELPVLGLTKSGGSDRTIAYENKALMLCEGLFVADVTDFEGWKAAIPSALDTNSSKSTSSFPCPAGHFNGFRTVIRPFYLTNSSGVD
B5: Tubulin beta-4A chain (protein, UniProt P04350 1-444, looked up)
Tubulin beta-4A chain: MREIVHLQAGQCGNQIGAKFWEVISDEHGIDPTGTYHGDSDLQLERINVYYNEATGGNYVPRAVLVDLEPGTMDSVRSGPFGQIFRPDNFVFGQSGAGNNWAKGHYTEGAELVDAVLDVVRKEAESCDCLQGFQLTHSLGGGTGSGMGTLLISKIREEFPDRIMNTFSVVPSPKVSDTVVEPYNATLSVHQLVENTDETYCIDNEALYDICFRTLKLTTPTYGDLNHLVSATMSGVTTCLRFPGQLNADLRKLAVNMVPFPRLHFFMPGFAPLTSRGSQQYRALTVPELTQQMFDAKNMMAACDPRHGRYLTVAAVFRGRMSMKEVDEQMLSVQSKNSSYFVEWIPNNVKTAVCDIPPRGLKMAATFIGNSTAIQELFKRISEQFTAMFRRKAFLHWYTGEGMDEMEFTEAESNMNDLVSEYQQYQDATAEEGEFEEEAEEEVA
B6: Keratin, type II cuticular Hb5 (protein, UniProt P78386 1-507, looked up)
Keratin, type II cuticular Hb5: MSCRSYRISSGCGVTRNFSSCSAVAPKTGNRCCISAAPYRGVSCYRGLTGFGSRSLCNLGSCGPRIAVGGFRAGSCGRSFGYRSGGVCGPSPPCITTVSVNESLLTPLNLEIDPNAQCVKQEEKEQIKSLNSRFAAFIDKVRFLEQQNKLLETKWQFYQNQRCCESNLEPLFSGYIETLRREAECVEADSGRLASELNHVQEVLEGYKKKYEEEVALRATAENEFVVLKKDVDCAYLRKSDLEANVEALVEESSFLRRLYEEEIRVLQAHISDTSVIVKMDNSRDLNMDCIIAEIKAQYDDVASRSRAEAESWYRSKCEEMKATVIRHGETLRRTKEEINELNRMIQRLTAEIENAKCQRAKLEAAVAEAEQQGEAALSDARCKLAELEGALQKAKQDMACLLKEYQEVMNSKLGLDIEIATYRRLLEGEEHRLCEGVGSVNVCVSSSRGGVSCGGLSYSTTPGRQITSGPSAIGGSITVVAPDSCAPCQPRSSSFSCGSSRSVRFA
B7: Carboxypeptidase N subunit 2 (protein, UniProt P22792 22-545, looked up)
Carboxypeptidase N subunit 2: CPMGCDCFVQEVFCSDEELATVPLDIPPYTKNIIFVETSFTTLETRAFGSNPNLTKVVFLNTQLCQFRPDAFGGLPRLEDLEVTGSSFLNLSTNIFSNLTSLGKLTLNFNMLEALPEGLFQHLAALESLHLQGNQLQALPRRLFQPLTHLKTLNLAQNLLAQLPEELFHPLTSLQTLKLSNNALSGLPQGVFGKLGSLQELFLDSNNISELPPQVFSQLFCLERLWLQRNAITHLPLSIFASLGNLTFLSLQWNMLRVLPAGLFAHTPCLVGLSLTHNQLETVAEGTFAHLSNLRSLMLSYNAITHLPAGIFRDLEELVKLYLGSNNLTALHPALFQNLSKLELLSLSKNQLTTLPEGIFDTNYNLFNLALHGNPWQCDCHLAYLFNWLQQYTDRLLNIQTYCAGPAYLKGQVVPALNEKQLVCPVTRDHLGFQVTWPDESKAGGSWDLAVQERAARSQCTYSNPEGTVVLACDQAQCRWLNVQLSPQQGSLGLQYNASQEWDLRSSCGSLRLTVSIEARAAGP

The molecules below were run on recombinant human PAD2 and PAD4 (assay: Citrullination site mapping by trypsin digestion and mass spectrometry; protein-level modifications over native, PAD2- and PAD4-citrullinated samples combined). Details: trypsin digest, Sequest HT search; co-identified proteins in the fibrinogen and vimentin samples (native, PAD2-cit, PAD4-cit); not split by sample or enzyme.
Assay type: biochemical
Source text: Description: Raw mass spectrometry data for proteolytic mapping of fibrinogen, vimentin, and hnRNP A2/B1 by cathepsins B, S, and H (sheets 1-6); citrullination site mapping of fibrinogen and vimentin by trypsin digestion (sheets 7-8); and the natural antigen processing assay with native, PAD2-citrullinated (PAD2-cit), and PAD4-citrullinated (PAD4-cit) fibrinogen (sheets 9-11).

Molecule	Modifications (Deamidated [R...] = citrullinated arginine positions found)
B1	Deamidated [R269; R389; R392]
B2	Deamidated [R125]
B3	Deamidated [R237]
B4	Deamidated [R63; R426; R435; R436; R570]
B5	Deamidated [R2]
B6	Deamidated [R142]
B7	Deamidated [R89; R449]
